Measurements from the supplement of paper PMC9233669.
This sample holds only a part of the variants without activity.

Tests used:
biotinyl-Phe-oxazolone = experiment: self-aminoacylation, catalytic enhancement (BFO) (fold over background); higher = more active; k-Seq, kA / k0A0; sequences stand for … in GGGAAUGGAUCCACAUCUACGAAUUC…UUCACUGCAGACUUGACGAAGCUG
How it was run: (§1)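 Working in 50 μL HEPES/NaCl/KCl/MgCl2/CaCl2 buffer with 5% acetonitrile at pH 6.9–7.0, mutagenized RNA pools (0.43 μM; 21-nt variable region) were reacted with 2–1250 μM of each biotinyl-aminoacyl-oxazolone for 90 minutes at room temperature. Streptavidin capture followed, with quantification by triplicate qPCR and Illumina sequencing. Catalytic enhancement is reported as median kA over the uncatalyzed rate, the low-activity peak of a bimodal Gaussian fit to the data.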

biotinyl-Val-oxazolone = experiment: self-aminoacylation, catalytic enhancement (BVO) (fold over background); higher = more active; k-Seq, kA / k0A0; sequences stand for … in GGGAAUGGAUCCACAUCUACGAAUUC…UUCACUGCAGACUUGACGAAGCUG
How it was run: as §1

biotinyl-Met-oxazolone = experiment: self-aminoacylation, catalytic enhancement (BMO) (fold over background); higher = more active; k-Seq, kA / k0A0; sequences stand for … in GGGAAUGGAUCCACAUCUACGAAUUC…UUCACUGCAGACUUGACGAAGCUG
How it was run: as §1

biotinyl-Trp-oxazolone = experiment: self-aminoacylation, catalytic enhancement (BWO) (fold over background); higher = more active; k-Seq, kA / k0A0; sequences stand for … in GGGAAUGGAUCCACAUCUACGAAUUC…UUCACUGCAGACUUGACGAAGCUG
How it was run: as §1

biotinyl-Ile-oxazolone = experiment: self-aminoacylation, catalytic enhancement (BIO) (fold over background); higher = more active; k-Seq, kA / k0A0; sequences stand for … in GGGAAUGGAUCCACAUCUACGAAUUC…UUCACUGCAGACUUGACGAAGCUG
How it was run: as §1

biotinyl-Leu-oxazolone = experiment: self-aminoacylation, catalytic enhancement (BLO) (fold over background); higher = more active; k-Seq, kA / k0A0; sequences stand for … in GGGAAUGGAUCCACAUCUACGAAUUC…UUCACUGCAGACUUGACGAAGCUG
How it was run: as §1

## GUACUUCAAAAAAUCGGUCUG [Fam1A.1 aminoacylation ribozyme variant]
biotinyl-Phe-oxazolone
  self-aminoacylation: 7.83
biotinyl-Val-oxazolone
  self-aminoacylation: 1.11
biotinyl-Met-oxazolone
  self-aminoacylation: 1.16
biotinyl-Trp-oxazolone
  self-aminoacylation: 7.93
biotinyl-Ile-oxazolone
  self-aminoacylation: 1.57
biotinyl-Leu-oxazolone
  self-aminoacylation: 1.62

## GUACUUCAAACAAACGGUCUG [Fam1A.1 aminoacylation ribozyme variant]
biotinyl-Phe-oxazolone
  self-aminoacylation: 1.72
biotinyl-Val-oxazolone
  self-aminoacylation: 1.15
biotinyl-Met-oxazolone
  self-aminoacylation: 1.22
biotinyl-Trp-oxazolone
  self-aminoacylation: 1.15
biotinyl-Ile-oxazolone
  self-aminoacylation: 1.43
biotinyl-Leu-oxazolone
  self-aminoacylation: 1.31

## GUACUUCAAACAACCGGUCUG [Fam1A.1 aminoacylation ribozyme variant]
biotinyl-Phe-oxazolone
  self-aminoacylation: 4.78
biotinyl-Val-oxazolone
  self-aminoacylation: 1.54
biotinyl-Met-oxazolone
  self-aminoacylation: 1.21
biotinyl-Trp-oxazolone
  self-aminoacylation: 2.02
biotinyl-Ile-oxazolone
  self-aminoacylation: 1.67
biotinyl-Leu-oxazolone
  self-aminoacylation: 1.23

## GUACUUCAAACAAUCGGUCAG [Fam1A.1 aminoacylation ribozyme variant]
biotinyl-Phe-oxazolone
  self-aminoacylation: 7.14
biotinyl-Val-oxazolone
  self-aminoacylation: 1.34
biotinyl-Met-oxazolone
  self-aminoacylation: 1.31
biotinyl-Trp-oxazolone
  self-aminoacylation: 7.34
biotinyl-Ile-oxazolone
  self-aminoacylation: 1.5
biotinyl-Leu-oxazolone
  self-aminoacylation: 1.43

## GUACUUCAAACAAUCGGUCUC [Fam1A.1 aminoacylation ribozyme variant]
biotinyl-Phe-oxazolone
  self-aminoacylation: 39.5
biotinyl-Val-oxazolone
  self-aminoacylation: 1.4
biotinyl-Met-oxazolone
  self-aminoacylation: 1.65
biotinyl-Trp-oxazolone
  self-aminoacylation: 26.5
biotinyl-Ile-oxazolone
  self-aminoacylation: 1.5
biotinyl-Leu-oxazolone
  self-aminoacylation: 2.06

## GUACUUCAAACAAUCGGUCUU [Fam1A.1 aminoacylation ribozyme variant]
biotinyl-Phe-oxazolone
  self-aminoacylation: 12.8
biotinyl-Val-oxazolone
  self-aminoacylation: 1.3
biotinyl-Met-oxazolone
  self-aminoacylation: 1.14
biotinyl-Trp-oxazolone
  self-aminoacylation: 12
biotinyl-Ile-oxazolone
  self-aminoacylation: 1.43
biotinyl-Leu-oxazolone
  self-aminoacylation: 1.49

## GUACUUCAAACAAUCGUUCUG [Fam1A.1 aminoacylation ribozyme variant]
biotinyl-Phe-oxazolone
  self-aminoacylation: 2.04
biotinyl-Val-oxazolone
  self-aminoacylation: 1.13
biotinyl-Met-oxazolone
  self-aminoacylation: 0.889
biotinyl-Trp-oxazolone
  self-aminoacylation: 2.37
biotinyl-Ile-oxazolone
  self-aminoacylation: 1.15
biotinyl-Leu-oxazolone
  self-aminoacylation: 0.972

## GUACUUCAAACAAUUGGUCUG [Fam1A.1 aminoacylation ribozyme variant]
biotinyl-Phe-oxazolone
  self-aminoacylation: 1.82
biotinyl-Val-oxazolone
  self-aminoacylation: 1.16
biotinyl-Met-oxazolone
  self-aminoacylation: 1.18
biotinyl-Trp-oxazolone
  self-aminoacylation: 1.75
biotinyl-Ile-oxazolone
  self-aminoacylation: 1.36
biotinyl-Leu-oxazolone
  self-aminoacylation: 1.34

## GUACUUCAAACUAUCGGUCUG [Fam1A.1 aminoacylation ribozyme variant]
biotinyl-Phe-oxazolone
  self-aminoacylation: 1.78
biotinyl-Val-oxazolone
  self-aminoacylation: 1.26
biotinyl-Met-oxazolone
  self-aminoacylation: 1.29
biotinyl-Trp-oxazolone
  self-aminoacylation: 1.46
biotinyl-Ile-oxazolone
  self-aminoacylation: 1.38
biotinyl-Leu-oxazolone
  self-aminoacylation: 1.14

## GUACUUCAACCAAUCGGUCUG [Fam1A.1 aminoacylation ribozyme variant]
biotinyl-Phe-oxazolone
  self-aminoacylation: 16.5
biotinyl-Val-oxazolone
  self-aminoacylation: 1.28
biotinyl-Met-oxazolone
  self-aminoacylation: 1.39
biotinyl-Trp-oxazolone
  self-aminoacylation: 15.1
biotinyl-Ile-oxazolone
  self-aminoacylation: 1.39
biotinyl-Leu-oxazolone
  self-aminoacylation: 1.59

## GUGCACCUAGGUCAUCGGGUG [Fam2.2 aminoacylation ribozyme variant]
biotinyl-Phe-oxazolone
  self-aminoacylation: 26.8
biotinyl-Val-oxazolone
  self-aminoacylation: 4.64
biotinyl-Met-oxazolone
  self-aminoacylation: 3.85
biotinyl-Trp-oxazolone
  self-aminoacylation: 6.04
biotinyl-Ile-oxazolone
  self-aminoacylation: 3.96
biotinyl-Leu-oxazolone
  self-aminoacylation: 3.9

## GUUACCCUGGCCAUCGAGUGA [Fam2.1 aminoacylation ribozyme variant]
biotinyl-Phe-oxazolone
  self-aminoacylation: 43.7
biotinyl-Val-oxazolone
  self-aminoacylation: 5
biotinyl-Met-oxazolone
  self-aminoacylation: 6.73
biotinyl-Trp-oxazolone
  self-aminoacylation: 9.03
biotinyl-Ile-oxazolone
  self-aminoacylation: 4.06
biotinyl-Leu-oxazolone
  self-aminoacylation: 8.07

## GUUACCCUGGUCAACGAGUGA [Fam2.1 aminoacylation ribozyme variant]
biotinyl-Phe-oxazolone
  self-aminoacylation: 42.7
biotinyl-Val-oxazolone
  self-aminoacylation: 3.22
biotinyl-Met-oxazolone
  self-aminoacylation: 5.98
biotinyl-Trp-oxazolone
  self-aminoacylation: 6.61
biotinyl-Ile-oxazolone
  self-aminoacylation: 3.72
biotinyl-Leu-oxazolone
  self-aminoacylation: 6.2
